The record followed here is patent US20050287158A1, “The p65 subunit of nf-kb for the radiosensitization of cells” (Georgetown University, priority 2002, published 2005).

One assay relates to endogenous p65 protein. In words: Immunoblot analysis of endogenous p65 protein in DN/CL6 cells. The class given is cell-based, human. The following applies: DN/CL6 cells (SCC-35 clone expressing p65DN). As to the method:
(§1) Cell culture, Transfection and Clonal Selections: Human head and neck squamous carcinoma cells (SCC-35) were used for the experiments described. These cells have been previously characterized as resistant to ionizing radiation based on clinical and radiobiological parameters (30). Cells were cultured in 10 cm^2 dishes and maintained in Dulbeco modified Eagle's medium supplemented with 10% fetal bovine serum, 2 mML-amino acids. Cells were passaged routinely at 80-90% confluence and checked for mycoplasma contamination at three-month intervals. […] G418 resistant clonal cells were then subcloned and maintained in the complete medium containing G418 (400 μg/ml) as described above. Drug resistant colonies were pooled or subcloned for future studies.
Western blotting: Following exposure to γ-radiation (1-20 Gy) (a ^137Cs J. L. Shepherrd Mark 1 laboratory irradiator) or TNF-α (10 ng/ml) treatment, cell extracts were prepared by using lysis buffer (50 mM Tris-Cl, pH 7.5, 100 mM NaCl, 0.1% NP40, 1 mM PMSF, 10 mg/ml leupeptin, 1 mg/ml aprotinin, 1 mg/ml perpstatin), followed by centrifugation at 12,000×g for 20 minutes. Protein quantities were determined using the BCA protein assay kit (Pierce). Equal amounts of cell extracts were analyzed on 10% SDS-polyacrylamide gels. […]

Another assay deals with NF-κB. As to the kind of experiment: NF-κB luciferase reporter assay (pNF-κB-Luc). It counts as cell-based, human. As to conditions: DN/CL6 vs SCC-35 cells; IR 20 Gy or TNF-α 10 ng/ml, 6 h. How it is done:
Luciferase Reporter Assay: Cells were transiently transfected for 16 h with 5 μg/ml of plasmid DNA by using Lipofectin (Gibco-BRL). Following treatment with ionizing radiation (20 Gy) or TNF-α (10 ng/ml), cells were lysed at 6 h in Reporter Lysis Buffer (Promega), and centrifuged for 2 min at 14,000×g.
To determine whether p65DN inhibits the activation of NF-κB, we transfected DN/CL6 cells with the NF-κB-specific luciferase reporter vector pNF-κB-Luc and then examined the effect of IR or TNF-α on luciferase activity. The stimulatory effects of these agents on NF-κB activity were reduced by a factor of 2 to 3 in DN/CL6 cells compared with those apparent in SCC-35 cells (FIG. 2B). Expression of p65DN thus inhibited NF-κB activation.
Background: A reporter such as luciferase makes a cellular process visible.

In a further assay the test system is PARP. In words: PARP cleavage by immunoblot after γ-radiation. It counts as cell-based, human. As to conditions: DN/CL6 cells. As to the method:
Western blotting: Following exposure to γ-radiation (1-20 Gy) (a ^137Cs J. L. Shepherrd Mark 1 laboratory irradiator) or TNF-α (10 ng/ml) treatment, cell extracts were prepared by using lysis buffer (50 mM Tris-Cl, pH 7.5, 100 mM NaCl, 0.1% NP40, 1 mM PMSF, 10 mg/ml leupeptin, 1 mg/ml aprotinin, 1 mg/ml perpstatin), followed by centrifugation at 12,000×g for 20 minutes. Protein quantities were determined using the BCA protein assay kit (Pierce). Equal amounts of cell extracts were analyzed on 10% SDS-polyacrylamide gels. The transblotted membranes were blocked in PBS containing 5% dry milk for 1 h and probed with specific antibodies, followed by washing with PBST. The membrane was then incubated with horse-radish peroxidase conjugated secondary antibodies for 30-60 minutes washed with PBST, and developed by using the ECL-chemiluminescence detection system (Amersham). Equal loading and transfer of proteins among lanes were confirmed by immunoblot analysis with antibodies to β-actin (Amersham) or by staining the membrane with Ponceau S. Other antibodies used in this study include anti-NF-κB(p65), IκB-α caspases-3, (Santa Cruz Biotechnology, Santa Cruz, Calif.) and PARP (Enzyme Synthesis, Dublin, Calif.). […]
In general terms: A western blot detects proteins with antibodies after separation by electrophoresis.

The target of a further assay is T1, caspase-3 (Homo sapiens, UniProt P42574).
T1 construct: endogenous in cells; host or cells: lysates of SCC-35 and DN/CL6 cells after 5 Gy of IR
T1 sequence (P42574 29-175 limits assumed): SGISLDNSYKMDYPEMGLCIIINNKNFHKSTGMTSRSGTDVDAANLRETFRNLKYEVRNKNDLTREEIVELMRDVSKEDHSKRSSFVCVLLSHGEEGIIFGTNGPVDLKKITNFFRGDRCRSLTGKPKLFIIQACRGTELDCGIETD
As to the kind of experiment: Caspase-3 activity, fluorogenic substrate assay after IR. It counts as cell-based. The following applies: DN/CL6 cells, IR 5 Gy. How it is done: Measurement of caspase activities—The activity of caspases-3 was assayed fluorometrically with specific fluorogenic substrates: MOCAc-Asp-Glu-Val-Asp-Ala-Pro-Lys(DNP)-NH2 (Peptide Institute, Osaka, Japan) (34). Cell extracts (60 μg of protein) were incubated for 1 h at 37° C. with 600 nM substrate in a reaction mixture (500 μl) containing 10 mM Hepes-NaOH (pH 7.4), 40 mM P-glycerophosphate, 50 mM NaCl, 2 mM MgCl2, 5 mM EGTA, 1 mM DTT, 2 mM ATP, 10 mM creatine phosphate, and creatine kinase (50 μg/ml). The fluorescence of the cleaved substrates was measured with a Hitachi F-4500 spectrophotometer at excitation and emission wavelengths, respectively, of 328 and 393 nm for MOCAc-DEVDAPK(DNP)-NH2.
The nuclear enzyme poly(ADP-ribose) polymerase (PARP), which plays an important role in the repair of DNA damage and in maintenance of genomic integrity (38, 39), is specifically cleaved between its NH2-terminal DNA-binding domain and its multifunctional COOH-terminal domain by caspase-3 or a caspase-3—like protease early during the execution phase of apoptosis (40). We therefore examined the effects of p65DN on both the cleavage of PARP and caspase-3 activity. […] Exposure to 5 Gy of γ-radiation induced a substantial increase in PARP cleavage within 48 h in DN/CL6 cells, whereas cleavage of this enzyme remained barely detectable at 72 h in SCC-35 cells (FIG. 4C).

The test system of assay [1] is SCC-35 cells. As to the kind of experiment: Radiation (clonogenic) survival assay. It counts as cell-based, human. The following applies: DN/CL6 cells. How it is done: Radiation survival assay: Clonogenic dose response was determined as previously described (32). Briefly, exponentially growing cells were plated in T-25 flasks and exposed to graded doses of ionizing radiation in a ^137Cs J. L. Shepherrd Mark 1 laboratory irradiator with a dose accuracy of ±5%. Physics support for calibration and quality assurance was provided for all experimental protocols. Colony counts were fit to single hit multitarget (SHMT) and the linear quadratic (L-Q) models (33). Data points were obtained from two to three independent experiments in triplicates for each experiment.
Impaired regulation of NF-κB in certain cell types is associated with intrinsic cellular radiosensitivity (14-16). To examine the role of NF-κB in determining cell sensitivity to radiation, we performed clonogenic survival assays after exposure of SCC-35 and DN/CL6 cells to graded doses of γ-radiation (FIG. 3). The sensitivity of DN/CL6 cells to IR was greater than that of the parental SCC-35 cells. According to the single-hit multitarget model (33), D0 values were determined to be 1.9 Gy (with α=0.16 and β=0.02) for SCC-35 cells and 1.2 Gy (with α=0.11 and β=0.06) for DN/CL6 cells. Because of the potential pitfalls of clonal heterogeneity associated with determination of radiation sensitivity in a clonal cell population, we also performed survival experiments with pooled transfected clones.

The subject of the next assay is endogenous p65 mRNA. In words: Northern blot analysis of endogenous p65 mRNA in clonal cells expressing p65DN. The class given is cell-based, human. The following applies: cell clones expressing p65DN. As to the method:
as §1
RNA was electrophoresed on a 1% formaldehyde-agarose gel and then transferred to the nitrocellulose membrane, followed by UV cross-linking. The membrane was hybridized with γ-^32P-dATP labeled cDNA probes for 16 h, washed, and autoradiographed.
To investigate the effects of targeting p65 as a means of disrupting NF-κB activation, we transfected radioresistant human squamous carcinoma SCC-35 cells with an expression vector encoding amino acids 1 to 84 of human p65 (p65DN). The resulting G418-resistant colonies were isolated and analyzed for expression of p65DN and endogenous p65. […]

The next assay relates to IκB-α. As to the kind of experiment: Immunoblot analysis of IR-induced IκB-α Ser32 phosphorylation/degradation and nuclear p65. It counts as cell-based, human. The following applies: DN/CL6 cells. How it is done: Western blotting: Following exposure to γ-radiation (1-20 Gy) (a ^137Cs J. L. Shepherrd Mark 1 laboratory irradiator) or TNF-α (10 ng/ml) treatment, cell extracts were prepared by using lysis buffer (50 mM Tris-Cl, pH 7.5, 100 mM NaCl, 0.1% NP40, 1 mM PMSF, 10 mg/ml leupeptin, 1 mg/ml aprotinin, 1 mg/ml perpstatin), followed by centrifugation at 12,000×g for 20 minutes. Protein quantities were determined using the BCA protein assay kit (Pierce). Equal amounts of cell extracts were analyzed on 10% SDS-polyacrylamide gels. The transblotted membranes were blocked in PBS containing 5% dry milk for 1 h and probed with specific antibodies, followed by washing with PBST. The membrane was then incubated with horse-radish peroxidase conjugated secondary antibodies for 30-60 minutes washed with PBST, and developed by using the ECL-chemiluminescence detection system (Amersham). Equal loading and transfer of proteins among lanes were confirmed by immunoblot analysis with antibodies to β-actin (Amersham) or by staining the membrane with Ponceau S. Other antibodies used in this study include anti-NF-κB(p65), IκB-α caspases-3, (Santa Cruz Biotechnology, Santa Cruz, Calif.) and PARP (Enzyme Synthesis, Dublin, Calif.).
IκB-α binds to both subunits of the p50-p65 heterodimer. We therefore next determined the effect of p65DN expression on IR-induced phosphorylation and subsequent degradation of IκB-αin the cytoplasm. […] This conclusion is consistent with the previous observation that amino acids 1 to 101 of p65 are required for its binding to IκB-α (36). We therefore propose that p65DN interferes with the inhibitory function of IκB-α by binding to this protein in both the cytoplasm and nucleus.

The subject of assay [2] is SCC-35 cells. In words: Apoptotic index after γ-radiation. It counts as cell-based, human. The following applies: DN/CL6 cells. From the text:
Apoptotic Index: Adherent and floating cells were collected at various times after exposure to various doses (1-20 Gy) of gamma radiation (a ^137Cs J. L. Shepherd Mark 1laboratory irradiator) and stained with acridine-orange and ethidium bromide (14). About 600 cells (˜100 cells per field) were scored for the aberrant chromosome organizations under flourescence microscopy. The apoptotic cells=(total number of cells with apoptotic nuclei/total number of cells counted)×100. All values represent the mean±SE of the experiments. All experiments were performed more than three times.
Activation of NF-κB contributes to the protection of many cell types from apoptotic cell death induced by DNA-damaging agents. However, under certain conditions and in certain cell types, activation of NF-κB induces apoptosis (37). Given that clonogenic survival analysis provides a measure of all types of cell death, we next determined the effect of p65DN expression on IR-induced apoptosis. IR induced a dose-dependent increase in the percentage of both SCC-35 and DN/CL6 cells characterized as apoptotic 48 h after irradiation (FIG. 4A). However, whereas the maximum proportion of apoptotic cells was 8% (evident at 20 Gy) for SCC-35 cells, confirming that apoptosis is not a major pathway of cell death in these cells, the maximum apoptotic index was 14% for DN/CL6 cells. The baseline apoptotic index for both cell lines was <1%.

B1: p65DN: dominant negative fragment, amino acids 1 to 84 of human p65 (RelA), expressed from vector pCR3.1 in SCC-35 cells (clone DN/CL6) (protein)
chain: MDELFPLIFPAEPAQASGPYVEIIEQPKQRGMRFRYKCEGRSAGSIPGERSTDTTKTHPTIKINGYTGPGTVRISLVTKDPPHR
B1: in the assay with endogenous p65 protein, the “reduction of the amount of endogenous p65 protein compared with parental SCC-35 cells” value is on record as 75%. The “factor of reduction of stimulatory effects of IR or TNF-α on NF-κB (luciferase) activity” value with NF-κB was 2 to 3. Further, the “time to substantial increase in PARP cleavage” value in the assay on PARP (5 Gy γ-radiation) is at most 48 h. Besides, the “γ-radiation dose resulting in PARP cleavage” value with PARP (data not shown) was at most 2 Gy. For the same molecule, the “IR-induced activation of caspase-3 compared with SCC-35 cells” value with caspase-3 is “earlier and more pronounced activation”. Further, in the assay with SCC-35 cells [1] (clonogenic survival fit), the α is 0.11 and the β turned out to be 0.06. The D0 with SCC-35 cells [1] (single-hit multitarget model, graded γ-radiation doses) was 1.2 Gy. Moreover, the “amount of endogenous p65 mRNA compared with parental SCC-35 cells” value with endogenous p65 mRNA was “reduced”. For the same molecule, in the assay on IκB-α (IR), the “amount of p65 in the nucleus after irradiation” value is “decrease”. The “IR-induced phosphorylation of IκB-α on Ser32” value in the assay on IκB-α (at 3 h after irradiation) was “remained markedly increased”. For the same molecule, the “time after irradiation without detectable degradation of IκB-α” value in the assay with IκB-α (parental cells degraded within 1 h) is given as “up to 3 h”. Also, in the assay on SCC-35 cells [2] (5 Gy γ-radiation), the “time at which substantial increase in apoptotic index was apparent” value was found to be 24 h. Further, the maximum apoptotic index in the assay on SCC-35 cells [2] (48 h after irradiation, 2-20 Gy) is given as 14%. Further, the baseline apoptotic index in the assay with SCC-35 cells [2] (no irradiation) is given as below 1%.
